According to the Human Domainome abundance scans (Beltran et al. 2025):
± gives the uncertainty stated by the source.

B1: Intersectin-1, residues 909 to 971; numbered along this chain, Q15811 (parent)
chain: QGEKVEGLQAQALYPWRAKKDNHLNFNKNDVITVLEQQDMWWFGEVQGQKGWFPKSYVKLISG
B2: Chromodomain-helicase-DNA-binding protein 4, residues 444 to 496; numbered along this chain, Q14839 (parent)
chain: EDDHHMEFCRVCKDGGELLCCDTCPSSYHIHCLNPPLPEIPNGEWLCPRCTCP

Variants of: B1
Test: abundance fitness (aPCA) (normalised: wild type 0, dead -1); higher = more abundant; growth selection in yeast, the domain comes from the species named
Conditions: Homo sapiens

Variant | abundance fitness
F43G | -0.596 ± 0.16
E6A | -0.139 ± 0.11
D39C | -0.262 ± 0.24
P54S | -0.88 ± 0.27
S56Q | -0.099 ± 0.2
L60K | -0.1 ± 0.11
G48D | -0.061 ± 0.18
V31S | -0.224 ± 0.027
L35E | -0.243 ± 0.29
Q9V | -0.093 ± 0.095
Y57C | -0.153 ± 0.14
D30C | -0.166 ± 0.07
S62E | -0.398 ± 0.38
E3F | -0.169 ± 0.29
N25E | -0.08 ± 0.13
F26G | -1.02 ± 0.19
R17A | -0.19 ± 0.09
V34M | -0.772 ± 0.3
K19T | 0.033 ± 0.054
Y14E | 0.023 ± 0.12
K20P | -0.374 ± 0.063
A18Q | -0.494 ± 0.15
F53K | -0.962 ± 0.41

Variant | abundance fitness
Q38C | -0.04 ± 0.18
F53Y | -0.666 ± 0.42
Q47Y | -0.113 ± 0.31
Y57D | -0.399 ± 0.24
G2C | -0.286 ± 0.16
T33S | -0.104 ± 0.074
K59S | -0.122 ± 0.13
R17L | -0.021 ± 0.11
V58A | -0.189 ± 0.088
T33F | -0.242 ± 0.22
Q11C | -0.459 ± 0.21
D39S | -0.127 ± 0.18
Y14L | 0.009 ± 0.097
K20H | -0.133 ± 0.06
W52F | -0.232 ± 0.4
L60Q | 0.049 ± 0.12
N29F | -0.196 ± 0.36
L24C | -0.199 ± 0.14
V58E | -0.703 ± 0.17
F26L | -0.078 ± 0.11
G51E | -0.86 ± 0.29
A18T | -0.065 ± 0.078
V34P | -0.646 ± 0.19

Variant | abundance fitness
M40W | -0.475 ± 0.22
P54W | -0.437 ± 0.18
W16S | -0.053 ± 0.1
F53W | -0.798 ± 0.18
D39K | -0.268 ± 0.13
A18L | -0.274 ± 0.065
K55E | -0.396 ± 0.34
M40I | 0.034 ± 0.17
E3R | -0.074 ± 0.11
H23A | -0.245 ± 0.091
N22G | -0.018 ± 0.074
G51R | -0.89 ± 0.26
T33M | -0.068 ± 0.36
E36C | -0.015 ± 0.37
Q1T | -0.111 ± 0.28
F43R | -0.328 ± 0.086
S62V | -0.253 ± 0.21
F43K | -0.202 ± 0.11
K59N | -0.114 ± 0.43
Q38E | 0.008 ± 0.16
K4C | 0.207 ± 0.47
I61H | -0.438 ± 0.2
A12C | -0.474 ± 0.21

Variant | abundance fitness
I32G | -0.658 ± 0.064
V5H | -0.657 ± 0.31
K4L | -0.248 ± 0.13
F53V | -0.677 ± 0.29
P54K | -0.354 ± 0.22
V58T | -0.395 ± 0.15
K4W | -0.08 ± 0.17
E6N | -0.079 ± 0.19
G48Y | -0.074 ± 0.21
Q1V | 0.158 ± 0.4
R17T | -0.097 ± 0.18
V31G | -0.476 ± 0.038
N29R | -0.172 ± 0.075
Q11R | -0.067 ± 0.075
N29A | -0.113 ± 0.11
H23L | -0.114 ± 0.085
Y57F | 0.279 ± 0.34
S56P | -0.298 ± 0.22
K20L | -0.176 ± 0.041
Q38S | -0.148 ± 0.16
E3W | -0.332 ± 0.2
Y14V | 0.011 ± 0.086
Y57W | -0.258 ± 0.36

Variant | abundance fitness
W42G | -0.734 ± 0.086
T33V | -0.113 ± 0.46
E6V | -0.122 ± 0.17
D21G | -0.068 ± 0.042
L35F | -0.284 ± 0.26
G63Q | -0.248 ± 0.38
Q11S | -0.066 ± 0.086
K20V | -0.117 ± 0.043
Y57H | -0.238 ± 0.18
V58P | -0.379 ± 0.2
Q9Y | -0.047 ± 0.18
V46C | 0.012 ± 0.18
P15A | 0.017 ± 0.11
K19D | 0.026 ± 0.058
S56D | -0.1 ± 0.18
A12S | -0.577 ± 0.2
I32Q | -1 ± 0.2
I61D | -0.159 ± 0.14
S62Q | 0.067 ± 0.45
M40K | 0.144 ± 0.22
S56A | -0.137 ± 0.13
W41D | -0.245 ± 0.13
P15F | -0.224 ± 0.32

Variant | abundance fitness
S62W | -0.075 ± 0.35
V31Y | -0.058 ± 0.036
Y14H | -0.103 ± 0.23
N27H | -0.708 ± 0.49
F53R | -0.951 ± 0.23
N22Q | 0.015 ± 0.15
D30Y | -0.469 ± 0.069
S56E | -0.178 ± 0.18
S56W | -0.393 ± 0.17
T33L | -0.158 ± 0.16
K20D | -0.097 ± 0.056
K19S | 0.008 ± 0.042
Q1L | -0.164 ± 0.17
W16N | -0.199 ± 0.2
D21R | -0.125 ± 0.056
A10L | -0.272 ± 0.15
V31F | -0.022 ± 0.033
W52V | -0.944 ± 0.25
K20F | -0.101 ± 0.059
S62F | -0.63 ± 0.23
K28L | -0.462 ± 0.23
F43T | -0.811 ± 0.47
Q47A | 0.009 ± 0.084

Variant | abundance fitness
N29E | -0.024 ± 0.18
K50C | -0.113 ± 0.17
F43I | -0.663 ± 0.48
Q49R | -0.031 ± 0.081
W16L | -0.046 ± 0.089
A10W | -0.183 ± 0.14
E3G | -0.165 ± 0.1
V58S | -0.816 ± 0.23
W42Q | -0.837 ± 0.24
N25M | -0.087 ± 0.21
N29H | 0.104 ± 0.15
K19P | -0.139 ± 0.076
K59R | -0.043 ± 0.09
Y14A | -0.09 ± 0.092
N22H | -0.301 ± 0.25
M40N | 0.121 ± 0.17
K50M | -0.177 ± 0.26
K4Q | -0.39 ± 0.16
Q11W | -0.098 ± 0.14

Variants of: B2
Test: as above
Conditions: Homo sapiens

Variant | abundance fitness
E1A | -0.531 ± 0.13
E1D | -0.693 ± 0.1
E1F | -0.306 ± 0.38
E1G | -0.289 ± 0.046
E1I | -0.265 ± 0.35
E1L | -0.235 ± 0.078
E1M | 0.156 ± 0.28
E1N | 0.354 ± 0.27
E1P | -0.436 ± 0.22
E1Q | -0.486 ± 0.16
